The results in this text go back to PMC7299284, “Studies in humanized mice and convalescent humans yield a SARS-CoV-2 antibody cocktail” (Science (New York, N.y.), 2020).

In the experiment the target is T1, SARS-CoV-2 spike RBD (as in the cryo-EM complex with REGN10933 and REGN10987 Fabs) (SARS-CoV-2, UniProt P0DTC2).
T1 construct: also called SARS-CoV-2 RBD
Description: cryo-EM structure; single-particle cryo-EM of SARS-CoV-2 spike RBD bound to Fab fragments of REGN10933 and REGN10987, nominal resolution 3.9 Å. As to conditions: both partners purified.

B1: Fab fragment of REGN10987 (Fab, V domains shown)
VH: QVQLVESGGGVVQPGRSLRLSCAASGFTFSNYAMYWVRQAPGKGLEWVAVISYDGSNKYYADSVKGRFTISRDNSKNTLYLQMNSLRTEDTAVYYCASGSDYGDYLLVYWGQGTLVTVSS
VL: QSALTQPASVSGSPGQSITISCTGTSSDVGGYNYVSWYQQHPGKAPKLMIYDVSKRPSGVSNRFSGSKSGNTASLTISGLQSEDEADYYCNSLTSISTWVFGGGTKLTVL
notes: also called REGN10987 Fab
As for B1, the binding result is reported as “binds”.

B2: Fab fragment of REGN10933 (Fab, V domains shown)
VH: QVQLVESGGGLVKPGGSLRLSCAASGFTFSDYYMSWIRQAPGKGLEWVSYITYSGSTIYYADSVKGRFTISRDNAKSSLYLQMNSLRAEDTAVYYCARDRGTTMVPFDYWGQGTLVTVSS
VL: DIQMTQSPSSLSASVGDRVTITCQASQDITNYLNWYQQKPGKAPKLLIYAASNLETGVPSRFSGSGSGTDFTFTISGLQPEDIATYYCQQYDNLPLTFGGGTKVEIK
notes: also called REGN10933 Fab
For B2, the binding result is recorded as “binds”.
